Biological target: RNA polymerase II (Pol II) immunopurified from HeLa cell nuclear extracts (human (endogenous in HeLa)) (UniProt P24928)
Test: negative stain electron microscopy; minimal PIC (DNA/TBP/TFIIA/TFIIB/Pol II/TFIIF) assembled sequentially on biotinylated promoter DNA, GST-ORF24-NTD added last; purified on streptavidin beads, eluted with EcoRI, cross-linked with 0.05% glutaraldehyde; 2D and 3D classification and difference maps, ~20 A

GST-ORF24-NTD (KSHV ORF24 residues 1-201 with an N-terminal GST tag) (domain or fragment)
percent of PIC particle images with extra density: 25%

From article PMC7498053
